This note sets out measurements from patent publication US20180112008A1 (Memorial Sloan Kettering, published 2018).

Ends that are not written are not given here. * marks the point of attachment. GlcNAc2 = N-linked chitobiose, CC(=O)N[C@@H]1[C@@H](O)[C@H](O[C@@H]2O[C@H](CO)[C@@H](O)[C@H](O)[C@H]2NC(C)=O)[C@@H](CO)O[C@H]1*

Test [1] concerns the target MUC16^c114 (human). The test is described as follows: FACS, SKOV3-c114. (In general: Flow cytometry measures light scatter and fluorescence of single cells or particles in a stream.)
Test [2] addresses MUC16^c114 on SKOV3 cells with MGAT5 knock-down (human). The test is described as follows: FACS, SKOV3-shMGAT5-c114.
Test [3] addresses MUC16^c114 (human). Briefly: FACS, SKOV3 transfectant, goat anti-mouse IgG-PE.
Test [4] concerns the target non-glycosylated 15-mer MUC16 peptide (human). The test is described as follows: sandwich ELISA on 'MUC16 15mer'; Blank 0.021.
The target of test [5] is MUC16 18mer. The test is described as follows: sandwich ELISA on 'MUC16 18mer'; Blank 0.032. A general note: An ELISA detects its analyte on a solid surface through an enzyme-linked reagent.
For test [6], the target named is GlcNAc2-15-mer glycopeptide, unconjugated (human). The test is described as follows: sandwich ELISA on 'MUC16 15mer + GlcNAc2'; Blank 0.019.
Test [7] addresses (GlcNAc2)2-18-mer glycopeptide, unconjugated (human). The test is described as follows: sandwich ELISA on 'MUC16 18mer + GlcNAc2'; Blank 0.029.
Test [8] deals with non-glycosylated 15-mer MUC16 peptide (human). The test is described as follows: ELISA 12/24/13 (sups from time of freezing), neat, column 15.
Test [9] concerns the target MUC16 18mer. Briefly: ELISA 12/24/13 (sups from time of freezing), neat, column 18.
Test [10] deals with GlcNAc2-15-mer glycopeptide, unconjugated (human). Briefly: ELISA 12/24/13 (sups from time of freezing), neat, column 15S.
Test [11] addresses (GlcNAc2)2-18-mer glycopeptide, unconjugated (human). The test is described as follows: ELISA 12/24/13 (sups from time of freezing), neat, column 18S.
Test [12] deals with MUC16 unrelated peptide 18mer. The test is described as follows: sandwich ELISA on 'MUC16 unrelated peptide 18mer'; Blank 0.013.
Test [13] concerns the target MUC16 unrelated peptide 18mer+GlcNAc2. The test is described as follows: sandwich ELISA on 'MUC16 unrelated 18mer + GlcNAc2'; Blank 0.014.
Test [14] deals with MUC16^c114 (human). The test is described as follows: FACS of transfected cells; vector control phrGFP 7.9; cell line not given.
For test [15], the target named is MUC16^c114 (human). The test is described as follows: FACS of transfected cells; vector control phrGFP 3.7; cell line not given.
Test [16] concerns the target MUC16^c114 (human). Briefly: FACS of transfected cells; vector control phrGFP 11.4; cell line not given.
Test [17] deals with EGFR (endogenous, MUC16^c114-expressing 3T3 cells) (Mus musculus (Mouse), UniProt Q01279 25-1210). Briefly: co-precipitation from MUC16^c114-expressing 3T3 cells with MUC16-targeting antibodies, western blot. On the technique in general: Immunoblotting shows a protein as a band on a membrane.
Test [18] has as its target HER3 (endogenous, MUC16^c114-expressing 3T3 cells) (Mus musculus (Mouse), UniProt Q61526 20-1339). Described as above.
The target in test [19] is T1, MUC16^c114-N2 (human, chain 1 pos 1 and pos 30: N-glycosylated Asn (cell-made glycans), written N).
T1 construct: MUC16^c114 with Asn24 (Asn1800) changed to Ala, on SKOV3 cells; also called N24 mut c114; SKOV3-N24 mutc114; not shown: hrGFP of the phrGFP II-C vector, fused at the cytoplasmic carboxy-terminus
T1 chain: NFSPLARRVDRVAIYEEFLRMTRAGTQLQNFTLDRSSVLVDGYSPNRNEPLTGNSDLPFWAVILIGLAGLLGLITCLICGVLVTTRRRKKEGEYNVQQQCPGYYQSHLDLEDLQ
Briefly: FACS, SKOV3-N24 mutc114.

Test [20] concerns the target T2, MUC16^c114-N1 (human, chain 1 pos 24 and pos 30: N-glycosylated Asn (cell-made glycans), written N).
T2 construct: MUC16^c114 with Asn1 (Asn1777) changed to Ala, on SKOV3 cells; also called N1 mut c114; SKOV3 MUC16^c114-N1; not shown: hrGFP of the phrGFP II-C vector, fused at the cytoplasmic carboxy-terminus
T2 chain: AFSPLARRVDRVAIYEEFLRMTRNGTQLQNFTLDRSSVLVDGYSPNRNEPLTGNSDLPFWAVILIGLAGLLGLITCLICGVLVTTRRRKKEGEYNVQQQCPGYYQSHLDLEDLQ
The test is described as follows: FACS, SKOV3 transfectant, goat anti-mouse IgG-PE.

The target in test [21] is T3, MUC16^c114-N3 (human, chain 1 pos 1 and pos 24: N-glycosylated Asn (cell-made glycans), written N).
T3 construct: MUC16^c114 with Asn30 (Asn1806) changed to Ala, on SKOV3 cells; also called N30 mut c114; SKOV3-N30 mutc114; not shown: hrGFP of the phrGFP II-C vector, fused at the cytoplasmic carboxy-terminus
T3 chain: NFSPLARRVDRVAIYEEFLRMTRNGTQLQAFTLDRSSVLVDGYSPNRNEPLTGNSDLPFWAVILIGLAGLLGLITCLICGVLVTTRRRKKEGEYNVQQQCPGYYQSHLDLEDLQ
Briefly: FACS, SKOV3 transfectant, goat anti-mouse IgG-PE.

In test [22] the target is T4, MUC16^c114-N123 (human, All three N-glycosylation sites (pos 1, 24, 30) are mutated to Ala; none is left in the ectodomain.).
T4 construct: MUC16^c114 with Asn1, Asn24 and Asn30 changed to Ala, on SKOV3 or 3T3 cells; also called N1-N24-N30 mut c114; SKOV3-N1-N24-N30mutc114; not shown: hrGFP of the phrGFP II-C vector, fused at the cytoplasmic carboxy-terminus
T4 chain: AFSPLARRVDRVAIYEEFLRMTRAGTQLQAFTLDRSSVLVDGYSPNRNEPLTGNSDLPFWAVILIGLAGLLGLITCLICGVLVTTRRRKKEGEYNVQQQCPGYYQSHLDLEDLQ
The test is described as follows: FACS, SKOV3 transfectant, goat anti-mouse IgG-PE.

Test [23] deals with T5, MUC16 nonglycosylated peptide 2 (human).
T5 construct: Peptide used to elicit the 4H11 antibody; also called nonglycosylated MUC16 peptide 2
T5 peptide: CTLDRSSVLVDGYSPNRNE
The test is described as follows: sandwich ELISA on 'MUC16 Nonglycosylated Peptide2'; Blank 0.029.

Test [24] deals with T6, MUC16^c80.
T6 construct: also called External Deletion
T6 single chain: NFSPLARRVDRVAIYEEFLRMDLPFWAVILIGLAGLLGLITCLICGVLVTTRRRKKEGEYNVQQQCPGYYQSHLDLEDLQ
Briefly: FACS of transfected cells; vector control phrGFP 11.4; cell line not given.

Test [25] addresses T7, MUC16^c86.
T7 construct: also called Internal Deletion
T7 single chain: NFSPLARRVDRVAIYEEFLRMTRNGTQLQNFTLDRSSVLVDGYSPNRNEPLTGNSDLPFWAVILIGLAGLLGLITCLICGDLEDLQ
The description is as above.

The target of test [26] is T8, MUC16^c344 (human, N- and O-glycosylation sites ; chain 1 pos 231, 254 and 260 (N1, N24, N30 of c114): N-glycosylated Asn, written N; further N- and O-glycosylation sites in the tandem-repeat part).
T8 construct: also called MUC16^c344-GFP; SKOV3-c344; not shown: hrGFP of the phrGFP II-C vector, fused at the cytoplasmic carboxy-terminus
T8 chain: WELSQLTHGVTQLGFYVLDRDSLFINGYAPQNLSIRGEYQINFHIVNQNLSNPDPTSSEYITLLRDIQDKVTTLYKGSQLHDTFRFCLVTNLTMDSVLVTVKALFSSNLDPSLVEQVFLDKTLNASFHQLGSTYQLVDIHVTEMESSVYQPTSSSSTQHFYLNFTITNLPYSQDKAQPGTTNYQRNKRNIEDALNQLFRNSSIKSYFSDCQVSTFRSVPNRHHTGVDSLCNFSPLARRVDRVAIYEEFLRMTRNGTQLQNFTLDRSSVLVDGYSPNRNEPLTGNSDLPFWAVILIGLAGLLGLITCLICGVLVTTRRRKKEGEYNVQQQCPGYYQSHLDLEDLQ
The test is described as above.

The target of test [27] is T9, MUC16 18mer (not fully specified).
T9 construct: also called non-glycosylated 18-mer MUC16 peptide
T9 peptide: CTRNGTQLQNFTLDRSSV
The test is described as follows: ELISA during fusion screen, dilution 400, column 18.

Test [28] has as its target T10, (GlcNAc2)2-18-mer glycopeptide, unconjugated (human).
T10 construct: Used in ELISA without KLH; also called 18-mer(chitobiose)2[C-T22-V38]; 18mer-chitobiose peptide
T10 peptide: Ac-CTRN(GlcNAc2)GTQLQN(GlcNAc2)FTLDRSSV-NH2
The test is described as follows: ELISA during fusion screen, dilution 400, column 18S.

Test [29] has as its target T11, non-glycosylated 15-mer MUC16 peptide (human).
T11 construct: Same peptide as the GlcNAc2-15-mer without the glycan; also called unglycosylated 15-mer
T11 peptide: CGTQLQNFTLDRSSV
The test is described as follows: ELISA 12/24/13 (sups from time of freezing), dilution 400, column 15.

The target in test [30] is T9, MUC16 18mer. Briefly: ELISA 12/24/13 (sups from time of freezing), dilution 400, column 18.
Test [31] has as its target T12, GlcNAc2-15-mer glycopeptide, unconjugated (human).
T12 construct: Cys plus G25-V38 of MUC16^c114; Used in ELISA without KLH; also called 15-mer(chitobiose)[C-G25-V38]; 15mer-chitobiose peptide
T12 peptide: Ac-CGTQLQN(GlcNAc2)FTLDRSSV-NH2
The test is described as follows: ELISA 12/24/13 (sups from time of freezing), dilution 400, column 15S.

Test [32] addresses T10, (GlcNAc2)2-18-mer glycopeptide, …. The test is described as follows: ELISA 12/24/13 (sups from time of freezing), dilution 400, column 18S.
In test [33] the target is T13, biotinylated chitobiose-conjugated 18-mer glycopeptide (human, also: biotinylated, site not given here).
T13 construct: Cys plus T22-V38 of MUC16^c114; The range is derived from T22-V38 and the statement that c114 is 1777-1890; also called (GlcNAc2)2-18-mer, biotinylated; 18-mer(chitobiose)2[C-T22-V38]
T13 peptide: Ac-CTRN(GlcNAc2)GTQLQN(GlcNAc2)FTLDRSSV-NH2
Briefly: BLI (Octet QK), biotinylated glycopeptide on streptavidin sensor, antibody 10 ug/mL, 1:1 model. On the procedure: Binding affinity was determined using ForeBio Octet QK. 5 μg/mL of biotinylated chitobiose-conjugated 18-mer glycopeptide was loaded onto a streptavidin biosensor. After washing off excess antigen, mouse antibodies were tested at 10 μg/mL for association and dissociation steps, respectively. Binding parameters were calculated using 1:1 binding site model, partial fit.

HER3 (endogenous, MUC16^c114-expressing 3T3 cells), sequence (Q61526 20-1339 limits assumed): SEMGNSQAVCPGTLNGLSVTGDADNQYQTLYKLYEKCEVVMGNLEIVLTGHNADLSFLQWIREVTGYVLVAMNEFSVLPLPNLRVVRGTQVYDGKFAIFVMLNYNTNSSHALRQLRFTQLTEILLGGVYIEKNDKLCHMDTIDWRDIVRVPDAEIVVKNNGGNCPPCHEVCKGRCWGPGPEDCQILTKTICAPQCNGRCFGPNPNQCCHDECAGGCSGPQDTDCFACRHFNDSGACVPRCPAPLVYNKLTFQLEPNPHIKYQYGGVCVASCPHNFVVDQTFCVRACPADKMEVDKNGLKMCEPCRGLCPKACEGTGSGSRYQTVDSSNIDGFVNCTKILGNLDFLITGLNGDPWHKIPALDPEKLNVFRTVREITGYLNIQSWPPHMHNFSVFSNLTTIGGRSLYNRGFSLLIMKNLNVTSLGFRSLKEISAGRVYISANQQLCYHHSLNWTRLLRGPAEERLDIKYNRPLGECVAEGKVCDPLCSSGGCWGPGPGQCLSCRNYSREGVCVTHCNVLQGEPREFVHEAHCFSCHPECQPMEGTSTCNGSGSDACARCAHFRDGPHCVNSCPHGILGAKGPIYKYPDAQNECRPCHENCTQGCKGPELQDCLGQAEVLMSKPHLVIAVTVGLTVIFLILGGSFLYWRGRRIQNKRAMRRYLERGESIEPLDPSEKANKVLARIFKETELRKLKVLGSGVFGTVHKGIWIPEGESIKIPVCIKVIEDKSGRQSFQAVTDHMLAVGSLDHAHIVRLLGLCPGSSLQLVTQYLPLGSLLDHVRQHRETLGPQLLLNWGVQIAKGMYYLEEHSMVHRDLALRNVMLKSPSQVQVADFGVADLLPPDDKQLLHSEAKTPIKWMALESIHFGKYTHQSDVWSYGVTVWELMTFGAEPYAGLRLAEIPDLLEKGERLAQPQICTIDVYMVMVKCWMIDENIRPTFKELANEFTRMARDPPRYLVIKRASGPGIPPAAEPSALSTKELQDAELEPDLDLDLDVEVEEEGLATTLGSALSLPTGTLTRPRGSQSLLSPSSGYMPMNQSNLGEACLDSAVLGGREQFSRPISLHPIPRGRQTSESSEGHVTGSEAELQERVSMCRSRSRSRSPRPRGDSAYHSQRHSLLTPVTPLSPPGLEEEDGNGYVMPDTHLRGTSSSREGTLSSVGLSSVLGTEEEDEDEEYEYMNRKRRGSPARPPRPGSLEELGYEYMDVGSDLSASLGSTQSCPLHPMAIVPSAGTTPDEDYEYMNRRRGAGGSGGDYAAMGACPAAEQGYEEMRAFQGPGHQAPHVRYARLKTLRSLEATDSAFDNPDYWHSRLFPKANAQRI

In the case of 4H11 (antibody), the geometric mean phycoerythrin (PE) fluorescence was 1120 in [1] and 2380 in test [2]. Further, in test [3], the Mean % PE stood at 85.7%. The ELISA signal in test [4] came to 0.049; in test [5], 0.076; in test [6], 0.06; in [7], 0.063; in [8] it was 0.02; in test [9], 0.02. The ELISA signal in [10] amounted to 0.02; in test [11] it was 0.02; in test [12] it was 0.045; in test [13], 0.038. Further, the % 4H11-PE Positives in [14] was found to be 28.4%; in test [15] it was 19.3%; in [16], 51.7%.

B1: MUC16^c114 (other)
chain: NFSPLARRVDRVAIYEEFLRMTRNGTQLQNFTLDRSSVLVDGYSPNRNEPLTGNSDLPFWAVILIGLAGLLGLITCLICGVLVTTRRRKKEGEYNVQQQCPGYYQSHLDLEDLQ
modifications: capable of N-glycosylation at Asn1, Asn24 and Asn30 ; chain 1 pos 1, 24, 30: Asn capable of N-glycosylation on the transfected cells, written N
notes: The forward primer adds Met-Val before Asn1; also called MUC16^c114-GFP; SKOV3 MUC16^c114; not shown: hrGFP of the phrGFP II-C vector fused at the cytoplasmic carboxy-terminus, with its short cloning linker
Turning to B1, the binding result in [17] and in [18] was “no binding” throughout.

B2: 4H11 (antibody, V domains shown)
VH: EVKLQESGGGFVKPGGSLKVSCAASGFTFSSYAMSWVRLSPEMRLEWVATISSAGGYIFYSDSVQGRFTISRDNAKNTLHLQMGSLRSGDTAMYYCARQGFGNYGDYYAMDYWGQGTTVTVSS
VL: DIELTQSPSSLAVSAGEKVTMSCKSSQSLLNSRTRKNQLAWYQQKPGQSPELLIYWASTRQSGVPDRFTGSGSGTDFTLTISSVQAEDLAVYYCQQSYNLLTFGPGTKLEVK
With B2, in test [19], the “geometric mean phycoerythrin (PE) fluorescence” value came out at 2650. The “Mean % PE” value in test [20] came to 91.5%; in test [21], 15.6%; in [22] it was 32.3%. The same molecule gave an ELISA signal in test [23] of 2.14. For the same molecule, the “% 4H11-PE Positives” value in test [24] amounted to 16.7%; in test [25] it was 27.4%; in test [26], 34.4%.

B3: 16C5.C1 (antibody, V domains shown)
VH: QVTLKESGPGILQPSQTLSLTCSFSGFSLNTLGMGVGWIRQPSGKGLEWLAHIWWDDDKYYYPALKSRLTISRDTSKNQVFLKIANVDTADTATYYCARIGTAQATDALDYWGQGTSVTVSS
VL: ELDMTQTPPSLSASVGETVRIRCLASEDIYSGISWYQQKPGKPPTLLIYGASNLESGVPPRFSGSGSGTDYTLTIGGVQAEDAATYYCLGGYSYSSTLTFGAGTNVEIK
notes: Mouse monoclonal from a hybridoma
As a reminder, the Kd is a measure of binding affinity in units of concentration. Higher therefore signals lower affinity. In general, koff refers to a measure of how fast the partners let go of each other. A lower koff goes with a long-lived complex. Consider B3, for which the ELISA signal was found to be 0.24 in test [27]; 0.36 in [28]; 0.62 in test [29]; 0.63 in test [30]; 0.23 in test [31]; 0.68 in test [32]. In addition, the Kd in test [33] is 0.0257 µM. In addition, the koff in test [33] was 0.00172 s⁻¹.
